What was measured:
[1] = target: T1, synthetic peptide Ac-SPLAQA-VRSSSR-NH2 (SEQ ID NO: 17) with the P′1 valine substituted by serine
T1 chain: SPLAQASRSSSR

[2] = target: T2, synthetic peptide Ac-SPLAQA-VRSSSR-NH2 (SEQ ID NO: 17) with the P′1 valine substituted by alanine
T2 chain: SPLAQAARSSSR

[3] = target: T3, synthetic peptide Ac-SPLAQA-VRSSSR-NH2 (SEQ ID NO: 17) with the P′1 valine substituted by glycine
T3 chain: SPLAQAGRSSSR

B1: tumor necrosis factor-alpha converting enzyme (TACE) catalytic domain (protein)
chain: RADPDPMKNTCKLLVVADHRFYRYMGRGEESTTTNYLIELIDRVDDIYRNTAWDNAGFKGYGIQIEQIRILKSPQEVKPGEKHYNMAKSYPNEEKDAWDVKMLLEQFSFDIAEEASKVCLAHLFTYQDFDMGTLGLAYVGSPRANSHGGVCPKAYYSPVGKKNIYLNSGLTSTKNYGKTILTKEADLVTTHELGHNFGAEHDPDGLAECAPNEDQGGKYVMYPIAVSGDHENNKMFSQCSKQSIYKTIESKAQECFQERSNKVGSHHHHHH
catalytic activity of TACE (product formation quantified at 214 nm after HPLC separation; 100 nM TACE, 100 micromolar substrate) [1]: decreased activity of TACE to non-detectable levels | catalytic activity of TACE (product formation quantified at 214 nm after HPLC separation; 100 nM TACE, 100 micromolar substrate) [2]: decreased activity of TACE to non-detectable levels | catalytic activity of TACE (product formation quantified at 214 nm after HPLC separation; 100 nM TACE, 100 micromolar substrate) [3]: decreased activity of TACE to non-detectable levels

From patent publication US20070148669
